For the assay, the target named is cathepsin B.

In patent US20200079823A1 one finds IC50 of cathepsin B inhibition (fluorescence-based kit assay) data, which are given here for 1 substance.

For surugamide I (13) (peptide), the IC50 of cathepsin B inhibition (fluorescence-based kit assay) was 9 µM.
